Results as given in patent US20200332005A1 (I MAB, published 2020).
Where two headings read alike, the source gives them in different places.

Assays:
[1] = molecular target: T1, recombinant human CD73 protein (human, UniProt P21589 27-547); assay: cell-based or functional assay
T1 sequence: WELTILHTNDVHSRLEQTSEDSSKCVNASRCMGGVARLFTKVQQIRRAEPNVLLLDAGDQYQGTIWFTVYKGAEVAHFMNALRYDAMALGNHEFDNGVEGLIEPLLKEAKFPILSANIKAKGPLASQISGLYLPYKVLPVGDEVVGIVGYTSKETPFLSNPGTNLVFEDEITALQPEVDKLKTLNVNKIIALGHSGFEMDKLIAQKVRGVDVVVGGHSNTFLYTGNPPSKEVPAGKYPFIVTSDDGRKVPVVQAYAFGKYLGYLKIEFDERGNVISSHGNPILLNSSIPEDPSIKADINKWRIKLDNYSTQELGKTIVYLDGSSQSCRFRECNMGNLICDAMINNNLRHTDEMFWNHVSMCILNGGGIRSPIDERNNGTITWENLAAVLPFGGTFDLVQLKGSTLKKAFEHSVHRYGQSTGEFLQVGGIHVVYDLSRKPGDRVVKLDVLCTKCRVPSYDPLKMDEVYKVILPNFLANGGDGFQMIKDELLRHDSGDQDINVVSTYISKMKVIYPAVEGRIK

[2] = molecular target: T2, human CD73 on the cell surface (human, UniProt P21589 27-549); assay: cell-based or functional assay
T2 sequence: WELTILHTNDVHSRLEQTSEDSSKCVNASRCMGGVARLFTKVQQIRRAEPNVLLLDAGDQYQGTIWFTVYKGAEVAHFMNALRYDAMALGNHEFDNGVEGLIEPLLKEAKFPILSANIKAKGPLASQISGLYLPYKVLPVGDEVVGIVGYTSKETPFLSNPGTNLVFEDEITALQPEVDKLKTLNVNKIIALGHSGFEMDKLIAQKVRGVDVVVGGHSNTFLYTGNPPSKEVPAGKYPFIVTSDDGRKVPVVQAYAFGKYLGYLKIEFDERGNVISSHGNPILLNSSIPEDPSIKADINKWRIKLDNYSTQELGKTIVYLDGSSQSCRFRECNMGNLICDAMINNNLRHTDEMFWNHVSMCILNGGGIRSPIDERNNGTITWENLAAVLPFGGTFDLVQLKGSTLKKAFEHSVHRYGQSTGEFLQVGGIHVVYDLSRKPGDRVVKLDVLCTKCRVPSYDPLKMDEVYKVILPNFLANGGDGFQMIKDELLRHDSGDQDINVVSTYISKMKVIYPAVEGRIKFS

C-terminal of CD73 = assay: plate binding assay, axis Binding activity (OD450) against Ab (µg/ml); panel Binding to C-terminal of CD73
Sequence of C-terminal of CD73 (P21589 whole entry): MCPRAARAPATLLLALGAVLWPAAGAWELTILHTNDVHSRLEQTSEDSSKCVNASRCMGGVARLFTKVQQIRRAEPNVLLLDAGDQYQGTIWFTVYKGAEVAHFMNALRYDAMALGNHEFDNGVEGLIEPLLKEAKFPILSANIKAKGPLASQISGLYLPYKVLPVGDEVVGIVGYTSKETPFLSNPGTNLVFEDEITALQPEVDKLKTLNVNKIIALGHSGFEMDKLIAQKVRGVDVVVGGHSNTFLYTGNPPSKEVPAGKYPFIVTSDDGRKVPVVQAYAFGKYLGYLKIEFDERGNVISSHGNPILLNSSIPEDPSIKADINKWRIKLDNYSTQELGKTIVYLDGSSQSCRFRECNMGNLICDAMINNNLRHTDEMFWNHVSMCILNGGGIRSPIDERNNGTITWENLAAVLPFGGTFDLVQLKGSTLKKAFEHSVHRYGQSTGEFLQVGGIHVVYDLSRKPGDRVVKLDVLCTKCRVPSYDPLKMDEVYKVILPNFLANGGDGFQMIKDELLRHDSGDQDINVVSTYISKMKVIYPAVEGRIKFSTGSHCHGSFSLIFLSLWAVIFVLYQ

[3] = molecular target: T1, recombinant human CD73 protein; assay: cell-based or functional assay; remark: listed apart in the source
[4] = molecular target: T2, human CD73 on the cell surface; assay: cell-based or functional assay; remark: listed apart in the source
[5] = molecular target: T1, recombinant human CD73 protein; assay: cell-based or functional assay; remark: listed apart in the source
cyno CD73 [6] = molecular target: cyno CD73 (cyno); assay: cell-based or functional assay
[7] = molecular target: T1, recombinant human CD73 protein; assay: plate binding assay read as OD 450 against Log (nM) of antibody; text: in vitro biochemical assay
cyno CD73 [8] = molecular target: cyno CD73 (cyno); assay: as above
[9] = molecular target: T1, recombinant human CD73 protein; assay: ELISA, recombinant human CD73 at 2 ug/ml
[10] = molecular target: T2, human CD73 on the cell surface; assay: flow cytometry on SK-OV-3 cells
Procedure: Binding was measured using an FACSCanto (Becton-Dickinson), and the results are presented in FIG. 8 (see also the table below).

[11] = molecular target: T2, human CD73 on the cell surface; assay: flow cytometry on SK-OV-3 cells; remark: listed apart in the source
Source text: In the right panel, human ovarian carcinoma cell line (SK-OV-3) was stained with different concentrations of Hu101-28 and analyzed for surface binding by flow cytometry.

[12] = molecular target: T1, recombinant human CD73 protein; assay: SPR, Biacore T200, antibody captured by anti-human Fc IgG, antigen as analyte, 1:1 model, 25 C
Procedure: For the binding assay, the Biacore T200 system was used through human antibody capture approach. The anti-human Fc lgG were immobilized on CMS sensor chip according to the manufactory's instruction. The test antibody was injected and captured by the immobilized anti-human Fc lgG. And then serial concentrations of antigen was individually injected, and the binding profile was recorded for each concentration antigen analyte, respectively. The assay system was regenerated by injection of 10 mM Glycine-HCl pH 1.5 for 30 seconds. The running buffer was HBS-EP+(10 mM HEPES, pH 7.4, 150 mM NaCl, 3 mM EDTA and 0.05% P20). The assay temperature was 25° C., and the association and dissociation time were 180 and 600 seconds, respectively.

- IC50, inhibition of recombinant human CD73 activity (CellTiter-Glo) [1]: 2.84 nM
- IC50, inhibition of CD73 activity on MDA-MB-231 cells (CellTiter-Glo) [2]: 8.21 nM
- IC50, inhibition of CD73 activity on SK-OV-3 cells (CellTiter-Glo) [2]: 2.52 nM
- EC50 (read off the curve) (C-terminal of CD73): ~0.02 µg/mL
- IC50 (nM), inhibition of recombinant CD73 enzymatic activity [3]: 9.35 nM
- IC50 (nM), inhibition of CD73 enzymatic activity on SK-OV-3 cells [4]: 2.52 nM
- IC50, inhibition of CD73 enzyme activity (% of residual enzyme activity) [5]: 1.78 nM
- IC50, inhibition of CD73 enzyme activity (% of residual enzyme activity) (cyno CD73 [6]): 2.22 nM
- EC50 [7]: 0.09 nM
- EC50 (cyno CD73 [8]): 0.44 nM
- EC50 [9]: 0.0887 nM
- EC50 [10]: 1.35 nM
- EC50 [11]: 0.67 nM
- Kd [12]: 0.59 nM
- koff [12]: 3.47e-05 s⁻¹
- kon [12]: 58900 M⁻¹ s⁻¹
B1: Hu101-28 (antibody, V domains shown)
VH: EVQLQESGPGLVKPSETLSLTCAVSGYSITSGYYWNWIRQPPGKKLEWMGYINYGGSNGYNPSLKSRITISRDTSKNQFSLKLSSVTAADTAVYYCARDYDAYYEALDDWGQGTTVTVSS
VL: EIVLSQSPATLSLSPGERATLSCRASSRVNYMHWYQQKPGQSPRPWISATSNLASGVPARFSGSGSGTSYTLTISSLEPEDFAVYYCQQWSSNPPTFGGGTKVEIK
notes: also called humanized anti-CD73 antibody Hu101-28
